{"source": "paper PMC8042443", "about": "“PKCα-mediated phosphorylation of the diacylglycerol kinase ζ MARCKS domain switches cell migration modes by regulating interactions with Rac1 and RhoA” (The Journal of Biological Chemistry, 2021)", "key": {"[1]": {"target": "T1, GST fusion protein of constitutively active RhoA (RhoA^V14) (UniProt P61586 1-193, RhoA^V14)", "T1 construct": "RhoA, constitutively active V14 mutant; cDNA from the Missouri S&T cDNA Resource Center, subcloned into pGEX-4T-3; also called GST-RhoA^V14; source: recombinant GST fusion (pGEX-4T-3), purified as described previously", "T1 sequence (P61586 other isoform, or with tags, fused parts or gaps RhoA^V14 | RhoA^V14)": "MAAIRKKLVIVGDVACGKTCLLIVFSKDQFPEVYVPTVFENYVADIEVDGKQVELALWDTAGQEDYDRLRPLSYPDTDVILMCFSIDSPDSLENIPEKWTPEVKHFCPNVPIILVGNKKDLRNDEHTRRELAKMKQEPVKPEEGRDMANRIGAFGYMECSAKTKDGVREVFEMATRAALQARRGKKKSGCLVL", "assay": "pull-down; GST fusion proteins immobilised on beads, incubated 1 to 2 h at 4 °C with lysates of MEFs expressing HA-tagged DGKζ constructs; washed at least four times with ice-cold lysis buffer; bound DGKζ detected by anti-HA immunoblot; in some panels cells were treated with vehicle, 100 nM PMA, or 1 μM Gö6976 before PMA", "conditions": "one partner purified"}, "[2]": {"target": "T2, GST fusion protein of inactive RhoA (RhoA^N19) (UniProt P61586 1-193, RhoA^N19)", "T2 construct": "cDNA from the Missouri S&T cDNA Resource Center, subcloned into pGEX-4T-3; also called GST-RhoA^N19; GST-RhoN^19; source: recombinant GST fusion (pGEX-4T-3), purified as described previously", "T2 sequence (P61586 other isoform, or with tags, fused parts or gaps RhoA^N19 | RhoA^N19)": "as the sequence (P61586 other isoform, or with tags, fused parts or gaps RhoA^V14 | RhoA^V14) above, with V14G, T19N counted along it", "assay": "pull-down; GST fusion proteins immobilised on beads, incubated 1 to 2 h at 4 °C with lysates of MEFs expressing HA-tagged DGKζ constructs; washed at least four times with ice-cold lysis buffer; bound DGKζ detected by anti-HA immunoblot; in some panels cells were treated with vehicle, 100 nM PMA, or 1 μM Gö6976 before PMA", "conditions": "one partner purified"}}, "data": [{"binder": "HA-tagged wild-type diacylglycerol kinase ζ (enzyme, diacylglycerol kinase ζ (DGKζ), wild type; also called HA-DGKζ; HA-DGKζ^WT; source: MEFs, infected with adenoviral vector or transiently transfected, in lysate) not shown", "values": [{"measurement": "fold change of binding after PMA against vehicle control", "setting": "[1]", "value": "~2", "unit": "fold"}, {"measurement": "fold change of binding after PMA against vehicle control", "setting": "[2]", "value": "~2", "unit": "fold"}]}]}
